Results on 1 molecule are retold here after PMC3265570 (Nature structural & molecular biology, 2011).

The test concerns the target full-length Crk-II (SH2-nSH3-cSH3) (UniProt Q64010-1 1-304). As to the kind of experiment: other fluorescence titration.

No end group written: not given here.

full-length Crk-II (SH2-nSH3-cSH3), sequence (Q64010 whole entry): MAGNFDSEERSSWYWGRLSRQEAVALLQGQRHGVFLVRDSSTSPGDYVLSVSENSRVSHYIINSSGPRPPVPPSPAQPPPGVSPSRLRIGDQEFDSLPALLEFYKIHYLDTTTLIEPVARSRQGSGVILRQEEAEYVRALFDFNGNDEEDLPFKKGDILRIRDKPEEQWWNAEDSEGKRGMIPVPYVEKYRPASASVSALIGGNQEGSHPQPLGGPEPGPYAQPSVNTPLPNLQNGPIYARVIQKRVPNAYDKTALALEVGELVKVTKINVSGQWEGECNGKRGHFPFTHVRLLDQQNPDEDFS

B1: fluorescein-labeled C3G-derived ligand (peptide)
peptide: HPPPPLPPKRRK(fluorescein)G-NH2
The term Kd denotes a measure of binding affinity in units of concentration. On to B1, for which binding was put at a Kd of 286 ± 19 nM.
